# Source: FireProtDB
# Several values for one entry are separate records, joined by “and”; a condition that tells them apart may be missing. Equal entries are not always repeated.
# B1: Thioredoxin wild type, P80579 (protein)
# chain: ATMTLTDANFQQAIQGDKPVLVDFWAAWCGPCRMMAPVLEEFAEAHADKVTVAKLNVDENPETTSQFGIMSIPTLILFKGGRPVKQLIGYQPKEQLEAQLADVLQ
# Settings: Alicyclobacillus acidocaldarius subsp. acidocaldarius, pH 7, CD, Sodium phosphate 10 mM, reversible: yes, whole UniProt chain shown
protein,measurement,setting,value
B1,denaturant midpoint (higher = more stable),GdHCl,2.9 M
same,Tm,Thermal,84.5 °C and 88.2 °C
same,denaturant midpoint (higher = more stable),Urea,6.7 M
